The values that follow come from PMC2758918 (Nature structural & molecular biology, 2009).

Residue numbers refer to the chain shown, from its start. Names may count otherwise.

As usually defined, the stoichiometry N is a count of units in the complex or per binding partner.

The data set “crystal structure” deals with the molecule itself. The experiment in a line: crystal structure.
The data set “FRET or BRET” deals with the molecule itself. Put plainly: FRET or BRET. (In general: BRET reads energy transfer from a luciferase to a nearby fluorophore.)

B1: zinc transporter YiiP from Escherichia coli (natural protein, UniProt P69380 1-300, looked up)
chain: MNQSYGRLVSRAAIAATAMASLLLLIKIFAWWYTGSVSILAALVDSLVDIGASLTNLLVVRYSLQPADDNHSFGHGKAESLAALAQSMFISGSALFLFLTGIQHLISPTPMTDPGVGVIVTIVALICTIILVSFQRWVVRRTQSQAVRADMLHYQSDVMMNGAILLALGLSWYGWHRADALFALGIGIYILYSALRMGYEAVQSLLDRALPDEERQEIIDIVTSWPGVSGAHDLRTRQSGPTRFIQIHLEMEDSLPLVQAHMVADQVEQAILRRFPGSDVIIHQDPCSVVPREGKRSMLS
modifications: ethyl mercury phosphate or thiomerosal bound to C127 (crystal derivatives)
Regarding B1, the “stoichiometry N” value in “crystal structure” was 2.

B2: YiiP^C127V doubly labeled with Alexa-488 and Alexa-647 (natural protein, Escherichia coli, UniProt P69380 1-300, looked up)
chain: B1 chain with C127V
modifications: Alexa donor-acceptor pair (Alexa-488, Alexa-647) on cysteine (Cys287)
In the case of B2, the binding result in “FRET or BRET” is recorded as “binds”.
